Laboratory results: patent publication US20210284747A1
Numbering of substitutions follows the chain as printed. Each block holds one binder with its values, some of them ahead of it.

Key:
[1] = target: LIGHT without residues 81-84, stably expressed on EL4 cells (EL4-NC-LIGHT); assay: cell-based or functional assay
[2] = target: Human LIGHT stably expressed on EL4 cells (EL4-LIGHT) (human) (UniProt O43557); assay: flow cytometry, EL4-LIGHT cells
[3] = target: Wild type full length LIGHT on HEK293FF cells (alanine scanning control) (UniProt O43557); assay: flow cytometry, HEK293FF, mAb at EC50

Sequence of Human LIGHT stably expressed on EL4 cells (EL4-LIGHT) (human) (O43557 whole entry): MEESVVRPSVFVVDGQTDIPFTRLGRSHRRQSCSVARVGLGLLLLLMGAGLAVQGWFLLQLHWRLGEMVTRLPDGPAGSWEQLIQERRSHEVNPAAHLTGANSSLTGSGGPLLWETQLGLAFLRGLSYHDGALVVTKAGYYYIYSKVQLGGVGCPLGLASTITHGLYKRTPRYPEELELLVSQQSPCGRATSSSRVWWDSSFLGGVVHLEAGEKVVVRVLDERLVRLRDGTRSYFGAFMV

B1: 3B04_var13 (antibody, V domains shown)
VH: QVQLVQSGAEVKKPGASVKVSCKASGYTFTDYEMHWVRQAPGQGLEWIGEIDPETGDTAYSQKFKGRATLTADKSTSTAYMEFSSLRSEDTAVYYCSRETDYFFDYWGQGTLVTVSS
VL: DIQMTQSPSSLSASVGDRVTITCRASENIYGALNWYQQKPGKAPKLLIYGATNLAEGVPSRFSGSGSGRDYTLTISSLQPEDFATYYCQNVLTTPWTFGQGTKLEIKR
IC50, inhibition of IL-8 secretion, HT-29 + EL4-NC-LIGHT cells [1]: 0.04 nM | EC50 [2]: 0.32 nM

B3: 3D12_var15 (antibody, V domains shown)
VH: B1 VH with G26D, Y32S, M34I, I48M, D57G, S61A, K65Q, A68V, F83L
VL: B1 VL with F83V, T93S
IC50, inhibition of IL-8 secretion, HT-29 + EL4-NC-LIGHT cells [1]: 0.38 nM | EC50 [2]: 0.22 nM

B4: 3B04_var16 (antibody, V domains shown)
VH: B1 VH with I48M, S61A, K65Q, A68V, F83L
VL: B1 VL
IC50, inhibition of IL-8 secretion, HT-29 + EL4-NC-LIGHT cells [1]: 0.1 nM | EC50 [2]: 0.24 nM

B5: 3B04_var14 (antibody, V domains shown)
VH: B1 VH with K65Q, A68V
VL: B1 VL
IC50, inhibition of IL-8 secretion, HT-29 + EL4-NC-LIGHT cells [1]: 0.05 nM | EC50 [2]: 0.3 nM

B7: 3D12_var14 (antibody, V domains shown)
VH: B1 VH with G26D, Y32S, M34I, D57G, S61N, K65Q, A68V, F83L
VL: B1 VL with F83V, T93S
IC50, inhibition of IL-8 secretion, HT-29 + EL4-NC-LIGHT cells [1]: 0.45 nM | EC50 [2]: 0.23 nM

B8: 2E08 chimeric IgG4 mAb (antibody, V domains shown)
VH: QVQMKESGAELVRPGVSVKISCKGSGYTFTDYAIHWVKQSHAKTLEWIGVISTYYGDASYNQKFKGKATMTVDKSSSTAYMELARLTSDDSAIYYCARSRGEYGNYDAMDYWGQGTSVTVSS
VL: DIVLTQSPASLAVSLGQRATISCKASQSVDYDGDSYMNWYQQKPGQPPKLLIYAASNLESGIPARFSGSGSGTDFTLNIHPVEEEDAATYYCQQSNEDPLTFGAGTKLELK
% of WT binding [3]: 100%

B10: 3B04 chimeric IgG4 mAb (antibody, V domains shown)
VH: QVQLQQPGAELVRPGASVTLSCKASGYTFTDYEMHWVKQTPVHGLEWIGEIDPETGDTAYSQKFKGKATLTADKSSSTAYMEFRSLTSEDSAVYYCSRETDYFFDYWGQGTTLTVSS
VL: DIQMTQTPASLSASVGETVTITCGASENIYGALNWYQRKQGKSPQLLIYGATNLADGMSSRFSGSGSGRQYSLKISSLHPDDFATYYCQNVLTTPWTFGGGTKLEIK
% of WT binding [3]: 100%

B13: 3A07 chimeric IgG4 mAb (antibody, V domains shown)
VH: B10 VH with P7S, S17P, G26D, Y32S, M34I, D57G, S61N, F83L
VL: ENVLTQSPAIMSASPGEKVTMTCSASSSVSYMYWYQQRPGSSPRLLIYDTSNLASGVPVRFSGSGSGTSYSLTISRMEAEDAATYYCQQWSSYPLTFGSGTKLEIK
% of WT binding [3]: 100%

More lines, now with the values ahead:

IC50, inhibition of IL-8 secretion, HT-29 + EL4-NC-LIGHT cells [1]: 0.45 nM | EC50 [2]: 0.24 nM
B2: 3D12_var13 (antibody, V domains shown)
VH: B1 VH with G26D, Y32S, M34I, D57G, S61N, F83L
VL: B1 VL with F83V, T93S

IC50, inhibition of IL-8 secretion, HT-29 + EL4-NC-LIGHT cells [1]: 0.52 nM | EC50 [2]: 0.26 nM
B6: 3D12_var16 (antibody, V domains shown)
VH: B1 VH with Y32S, I48M, D57G, S61A, K65Q, A68V, F83L
VL: B1 VL with F83V, T93S

% of WT binding [3]: 100%
B9: 2B11 chimeric IgG4 mAb (antibody, V domains shown)
VH: B8 VH with Q1E, M4L, K5V, T44S, D89E
VL: DIVLTQSPASLAVSLGQRATISCRASESVDSYGNSFMHWYQQKPGQPPKLLIYRASNLESGIPARFSGSGSRTDFTLTINPVEADDVATYYCQQSNEDPYTFGGGTKLEIK

% of WT binding [3]: 100%
B11: 3C10 chimeric IgG4 mAb (antibody, V domains shown)
VH: B10 VH with Q1E, P7S, G26D, Y32S, M34I, D57G, S61N, F83L
VL: B13 VL with E1D, N2V, L4M, S7T, R38K, S99A, I105L

% of WT binding [3]: 100%
B12: 3D12 chimeric IgG4 mAb (antibody, V domains shown)
VH: B10 VH with G26D, Y32S, M34I, D57G, S61N, F83L
VL: B10 VL with T7S, F83V, T93S
